± gives the uncertainty stated by the source.
Test: self-splicing fitness, log relative to wild type (ln ratio); higher = more splicing; Tetrahymena group I intron in knt gene, E. coli kanamycin selection, DiMSum; sequences stand for … in CUCUCU…GGAGGGAAAAGUUAUCAGGCAUGCACCUGGUAGCUAGUCUUUAAACCAAUAGAUUGCAUCGGUUUAAAAGGCAAGACCGUCAAAUUGCGGGAAAGGGGUCAACAGCCGUUCAGUACCAAGUCUCAGGGGAAACUUUGAGAUGGCCUUGCAAAGGGUAUGGUAAUAAGCUGACGGACAUGGUCCUAACCACGCAGCCAAGUCCUAAGUCAACAGAUCUUCUGUUGAUAUGGAUGCAGUUCACAGACUAAAUGUCGGUCGGGGAAGAUGUAUUCUUCUCAUAAGAUAUAGUCGGACCUCUCCUUAAUGGGAGCUAGCGGAUGAAGUGAUGCAACACUGGAGCCGCUGGGAACUAAUUUGUAUGCGAAAGUAUAUUGAUUAGUUUUGGAGUACUCGUGGUCG
Method in brief: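 The eight P1ex-region nucleotides of an intron in the knt kanamycin-resistance gene on pET-22b(+) were all randomised and the library put into E. coli BL21(DE3). Six replicate transformations were grown overnight at 37°C or 30°C on LB agar with or without 25 μg/mL kanamycin, together with 100 μg/mL carbenicillin, 50 μM IPTG and 0.2% rhamnose. Colonies were pooled and amplicon-sequenced on an Illumina HiSeq 2500. Fitness from DiMSum is the error-weighted combination of wild-type-normalised replicate fold changes, kanamycin over none.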

| Sequence | self-splicing fitness (ln) (30 °C) | self-splicing fitness (ln) (37 °C) |
| --- | --- | --- |
| UGAUAGCAAUAUUACGACUG | 0.053 ± 0.18 | -0.49 ± 0.17 |
| UGAUAGCAAUAUUACGAGGU | -3.79 ± 0.24 | -3.13 ± 0.25 |
| UGAUAGCAAUAUUACGCUAU | -3.98 ± 0.47 | -2.04 ± 0.27 |
| UGAUAGCAAUAUUACGCUGG | -1.15 ± 0.11 | -0.645 ± 0.12 |
| UGAUAGCAAUAUUACGGAAC | – | -1.21 ± 0.42 |
| UGAUAGCAAUAUUACGGAAU | -2.96 ± 0.18 | -2 ± 0.23 |
| UGAUAGCAAUAUUACGGAGU | -3.8 ± 0.37 | -2.42 ± 0.41 |
| UGAUAGCAAUAUUACGGAUC | -2.86 ± 0.22 | -2.13 ± 0.3 |
| UGAUAGCAAUAUUACGGCAC | -2.97 ± 0.33 | -1.51 ± 0.43 |
| UGAUAGCAAUAUUACGGCCU | -0.718 ± 0.097 | -0.609 ± 0.15 |
| UGAUAGCAAUAUUACGGCGA | -0.745 ± 0.093 | -0.477 ± 0.13 |
| UGAUAGCAAUAUUACGGCUA | -0.455 ± 0.14 | 0.0243 ± 0.14 |
| UGAUAGCAAUAUUACGGGAA | -2.65 ± 0.2 | -2.44 ± 0.21 |
| UGAUAGCAAUAUUACGGGGG | -1.83 ± 0.18 | -2.45 ± 0.28 |
| UGAUAGCAAUAUUACGGUGA | -1.46 ± 0.16 | -0.637 ± 0.19 |
| UGAUAGCAAUAUUACGGUUG | -0.902 ± 0.072 | 0.392 ± 0.11 |
| UGAUAGCAAUAUUACGUAAG | -1.52 ± 0.093 | -0.601 ± 0.11 |
| UGAUAGCAAUAUUACGUACU | 0.125 ± 0.1 | -0.524 ± 0.11 |
| UGAUAGCAAUAUUACGUAUU | -3.26 ± 0.25 | -2.34 ± 0.29 |
| UGAUAGCAAUAUUACGUGCC | -2.61 ± 0.2 | -1.26 ± 0.2 |
| UGAUAGCAAUAUUACGUUAG | -1.92 ± 0.1 | -1.57 ± 0.15 |
| UGAUAGCAAUAUUACGUUAU | -3.61 ± 0.18 | -2.52 ± 0.17 |
| UGAUAGCAAUAUUACGUUUU | -3.75 ± 0.16 | -1.85 ± 0.14 |
| UGCAAGCAAUAUUACGAAAC | – | -2.65 ± 0.36 |
| UGCAAGCAAUAUUACGACAU | -1.679 ± 0.013 | -0.674 ± 0.032 |

| Sequence | self-splicing fitness (ln) (30 °C) | self-splicing fitness (ln) (37 °C) |
| --- | --- | --- |
| UGCAAGCAAUAUUACGACGG | -0.954 ± 0.074 | -0.946 ± 0.079 |
| UGCAAGCAAUAUUACGAGAG | -3.4 ± 0.2 | -2.97 ± 0.21 |
| UGCAAGCAAUAUUACGAUAG | -1.09 ± 0.067 | -0.0803 ± 0.085 |
| UGCAAGCAAUAUUACGCCAU | -4.18 ± 0.42 | -1.87 ± 0.29 |
| UGCAAGCAAUAUUACGCCCG | -0.288 ± 0.18 | 0.109 ± 0.2 |
| UGCAAGCAAUAUUACGCCGU | -2.38 ± 0.36 | -1.81 ± 0.25 |
| UGCAAGCAAUAUUACGCGUU | -2.66 ± 0.16 | -1.29 ± 0.14 |
| UGCAAGCAAUAUUACGCUAA | -2.73 ± 0.17 | 0.000151 ± 0.11 |
| UGCAAGCAAUAUUACGCUCA | -0.11 ± 0.16 | 0.138 ± 0.2 |
| UGCAAGCAAUAUUACGGAGG | -3.21 ± 0.19 | -1.42 ± 0.16 |
| UGCAAGCAAUAUUACGGAUU | -2.63 ± 0.11 | -1.84 ± 0.14 |
| UGCAAGCAAUAUUACGGUAA | -1.08 ± 0.12 | -0.838 ± 0.11 |
| UGCAAGCAAUAUUACGGUGU | -3.9 ± 0.23 | -2.92 ± 0.24 |
| UGCAAGCAAUAUUACGGUUG | -2.49 ± 0.11 | -1.88 ± 0.13 |
| UGCAAGCAAUAUUACGUCAC | -2.88 ± 0.47 | -2.27 ± 0.24 |
| UGCAAGCAAUAUUACGUGUC | -1.55 ± 0.09 | -3.56 ± 0.23 |
| UGCAAGCAAUAUUACGUUCC | -3.72 ± 0.33 | -1.43 ± 0.36 |
| UGCCAGCAAUAUUACGAAAG | -2.78 ± 0.13 | -1.4 ± 0.15 |
| UGCCAGCAAUAUUACGACUU | -2.97 ± 0.14 | -1.46 ± 0.13 |
| UGCCAGCAAUAUUACGAGCU | -1.17 ± 0.075 | -0.631 ± 0.098 |
| UGCCAGCAAUAUUACGAUCC | -3.25 ± 0.29 | -1.11 ± 0.42 |
| UGCCAGCAAUAUUACGAUGC | -3.57 ± 0.17 | -2.35 ± 0.21 |
| UGCCAGCAAUAUUACGAUGG | -3.49 ± 0.2 | -2.16 ± 0.18 |
| UGCCAGCAAUAUUACGCACG | -1.48 ± 0.2 | -0.233 ± 0.14 |
| UGCCAGCAAUAUUACGCAGG | -4.43 ± 0.33 | -3.14 ± 0.28 |

| Sequence | self-splicing fitness (ln) (30 °C) | self-splicing fitness (ln) (37 °C) |
| --- | --- | --- |
| UGCCAGCAAUAUUACGCCAC | – | -2.54 ± 0.29 |
| UGCCAGCAAUAUUACGCCCA | 0.23 ± 0.099 | -0.149 ± 0.13 |
| UGCCAGCAAUAUUACGCGAG | -3.22 ± 0.17 | -2.92 ± 0.21 |
| UGCCAGCAAUAUUACGCGCU | -1.3 ± 0.12 | -0.531 ± 0.17 |
| UGCCAGCAAUAUUACGCGGC | – | -1.85 ± 0.35 |
| UGCCAGCAAUAUUACGCUCA | -0.505 ± 0.061 | -0.207 ± 0.07 |
| UGCCAGCAAUAUUACGCUCU | -1.42 ± 0.079 | 0.293 ± 0.098 |
| UGCCAGCAAUAUUACGGGGC | -3.04 ± 0.16 | -1.74 ± 0.17 |
| UGCCAGCAAUAUUACGGGGG | -3.83 ± 0.17 | -2.9 ± 0.17 |
| UGCCAGCAAUAUUACGGGUA | -2.25 ± 0.15 | -1.24 ± 0.15 |
| UGCCAGCAAUAUUACGGUCA | -0.926 ± 0.081 | -0.0439 ± 0.092 |
| UGCCAGCAAUAUUACGUCUU | -2.22 ± 0.18 | -1.86 ± 0.21 |
| UGCCAGCAAUAUUACGUGCA | -2.55 ± 0.1 | -1.53 ± 0.12 |
| UGCCAGCAAUAUUACGUGGA | -3.33 ± 0.18 | -1.71 ± 0.13 |
| UGCCAGCAAUAUUACGUGUG | -1.49 ± 0.052 | -1.14 ± 0.071 |
| UGCCAGCAAUAUUACGUUCC | -1.31 ± 0.31 | -2.25 ± 0.3 |
| UGCGAGCAAUAUUACGAGCG | -2.92 ± 0.33 | -2.07 ± 0.3 |
| UGCGAGCAAUAUUACGAUAC | -2.68 ± 0.28 | -1.45 ± 0.32 |
| UGCGAGCAAUAUUACGAUCC | – | -2.04 ± 0.46 |
| UGCGAGCAAUAUUACGAUCU | -1.84 ± 0.21 | -1.06 ± 0.16 |
| UGCGAGCAAUAUUACGAUGG | -3.43 ± 0.2 | -1.93 ± 0.17 |
| UGCGAGCAAUAUUACGAUUA | -1.56 ± 0.13 | -1.1 ± 0.11 |
| UGCGAGCAAUAUUACGCCUC | -2.78 ± 0.43 | – |
| UGCGAGCAAUAUUACGCUUU | -2.38 ± 0.15 | -3.02 ± 0.28 |
| UGCGAGCAAUAUUACGGAAA | -3.19 ± 0.33 | -2.55 ± 0.3 |

| Sequence | self-splicing fitness (ln) (30 °C) | self-splicing fitness (ln) (37 °C) |
| --- | --- | --- |
| UGCGAGCAAUAUUACGGAGG | – | -1.17 ± 0.18 |
| UGCGAGCAAUAUUACGGGAA | -3.87 ± 0.38 | -2.5 ± 0.24 |
| UGCGAGCAAUAUUACGGGCC | -2.91 ± 0.28 | -1.54 ± 0.21 |
| UGCGAGCAAUAUUACGGUAA | -2.4 ± 0.17 | -2.22 ± 0.16 |
| UGCGAGCAAUAUUACGUACC | -2.77 ± 0.14 | -2.75 ± 0.25 |
| UGCGAGCAAUAUUACGUACU | -2.58 ± 0.24 | -1.23 ± 0.22 |
| UGCGAGCAAUAUUACGUAGA | – | -0.382 ± 0.22 |
| UGCGAGCAAUAUUACGUCAA | – | -0.906 ± 0.35 |
| UGCGAGCAAUAUUACGUCGU | -3.64 ± 0.25 | -3.4 ± 0.37 |
| UGCGAGCAAUAUUACGUGUC | -4.36 ± 0.33 | -2.01 ± 0.26 |
| UGCGAGCAAUAUUACGUUCG | – | -1.25 ± 0.34 |
| UGCUAGCAAUAUUACGAAAU | -3.79 ± 0.4 | -1.67 ± 0.36 |
| UGCUAGCAAUAUUACGAAGG | -2.13 ± 0.16 | -0.838 ± 0.34 |
| UGCUAGCAAUAUUACGAGAU | -3.93 ± 0.31 | -2.41 ± 0.3 |
| UGCUAGCAAUAUUACGAGCA | – | -2.39 ± 0.39 |
| UGCUAGCAAUAUUACGAGUA | -1.34 ± 0.072 | -0.447 ± 0.076 |
| UGCUAGCAAUAUUACGAUCG | 0.18 ± 0.12 | 0.439 ± 0.23 |
| UGCUAGCAAUAUUACGAUGG | -1.52 ± 0.067 | -0.47 ± 0.088 |
| UGCUAGCAAUAUUACGCAAC | -3.07 ± 0.28 | -1.98 ± 0.2 |
| UGCUAGCAAUAUUACGCACC | -1.91 ± 0.34 | -0.242 ± 0.37 |
| UGCUAGCAAUAUUACGCCAU | -3.15 ± 0.28 | -2.65 ± 0.35 |
| UGCUAGCAAUAUUACGCUUC | -1.65 ± 0.17 | -0.347 ± 0.28 |
| UGCUAGCAAUAUUACGGAAU | -3.98 ± 0.39 | -2.97 ± 0.29 |

Source: the supplement of paper PMC7877785
